To fix the notation:
B2: pGBTE2Fa226-356: GAL4 DNA-binding domain fusion of AtE2Fa amino acids 226-356 (other)
chain: MKLLSSIEQACDICRLKKLKCSKEKPKCAKCLKNNWECRYSPKTKRSPLTRAHLTEVESRLERLEQLFLLIFPREDLDMILKMDSLQDIKALLTGLFVQDNVNKDAVTDRLASVETDMPLTLRQHRISATSSSEESSNKGQRQLTVSNRILWKGVDACPGDEDADVSVLQLQAEIENLALEEQALDNQIRQTEERLRDLSENEKNQKWLFVTEEDIKSLPGFQNQTLIAVKAPHGTTLEVPDPDEAADHPQRRYRIILRSTMGPIDVYLVSEFEGKFE
notes: also called E2F5 dimerisation domain; E2Fa (=E2F5) dimerization domain
B5: GAL4 transactivation domain fusion of AtDPa 1-292 (prey in pAD-GAL424) (other, not shown: large carriers)
chain: MSMEMELFVTPEKQRQHPSVSVEKTPVRRKLIVDDDSEIGSEKKGQSRTSGGGLRQFSVMVCQKLEAKKITTYKEVADEIISDFATIKQNAEKPLNENEYNEKNIRRRVYDALNVFMALDIIARDKKEIRWKGLPITCKKDVEEVKMDRNKVMSSVQKKAAFLKELREKVSSLESLMSRNQEMVVKTQGPAEGFTLPFILLETNPHAVVEIEISEDMQLVHLDFNSTPFSVHDDAYILKLMQEQKQEQNRVSSSSSTHHQSQHSSAHSSSSSCIASGTSGPVCWNSGSIDTR
notes: also called full-length AtDPa prey
B6: GAL4 transactivation domain fusion of AtDPb 1-385 (prey in pAD-GAL424) (other, not shown: large carriers)
chain: MTTTGSNSNHNHHESNNNNNNPSTRSWGTAVSGQSVSTSGSMGSPSSRSEQTITVVTSTSDTTFQRLNNLDIQGDDAGSQGASGVKKKKRGQRAAGPDKTGRGLRQFSMKVCEKVESKGRTTYNEVADELVAEFALPNNDGTSPDQQQYDEKNIRRRVYDALNVLMAMDIISKDKKEIQWRGLPRTSLSDIEELKNERLSLRNRIEKKTAYSQELEEQYVGLQNLIQRNEHLYSSGNAPSGGVALPFILVQTRPHATVEVEISEDMQLVHFDFNSTPFELHDDNFVLKTMKFCDQPPQQPNGRNNSQLVCHNFTPENPNKGPSTGPTPQLDMYETHLQSQQHQQHSQLQIIPMPETNNVTSSADTAPVKSPSLPGIMNSSMKPEN
notes: also called full-length AtDPb prey
B7: pGBTE2Fb 1-127: GAL4 DNA-binding domain fusion of AtE2Fb amino acids 1-127 (other)
chain: MKLLSSIEQACDICRLKKLKCSKEKPKCAKCLKNNWECRYSPKTKRSPLTRAHLTEVESRLERLEQLFLLIFPREDLDMILKMDSLQDIKALLTGLFVQDNVNKDAVTDRLASVETDMPLTLRQHRISATSSSEESSNKGQRQLTVSMSEEVPQQFPSSKRQLHPSLSSMKPPLVAPGEYHRFDAAETRGGGAVADQVVSDAIVIKSTLKRKTDLVNQIVEVNELNTGVLQTPVSGKGGKAKKTSRSAKSNKSGTLASGSNAGSPGNNFAQAGT

Experiment [1] deals with T1, HA-tagged wild-type AtE2Fb, in vitro translated (Arabidopsis, UniProt Q9FV71 1-469).
T1 construct: wild-type (whole) protein; also called HA-AtE2Fb; E2F3
The experiment can be described thus: co-immunoprecipitation (anti-c-myc) of in vitro co-translated tagged proteins, SDS-PAGE autoradiography. On the procedure: In vitro transcription and translation experiments were performed using the TNT T7-coupled wheat germ extract kit (Promega) primed with appropriate plasmids for 90 min at 30° C. For immunoprecipitation, 10 μl of the total in vitro translated extract (50 μl) was diluted at 1:5 in Nonidet P40 buffer (50 mM Tris, pH 7.4, 150 mM NaCl, 1% Nonidet P40, 1 mM phenylmethylsulfonyl fluoride, 10 μg/ml leupeptin/aprotinin/pepstatin) and incubated for 2 h at 4° C. with anti-c-myc (9E10; BabCo) or anti-HA (16B12; BabCo) antibodies. Protein-A-Sepharose (40 μl 25% (v/v)) was added and incubated for 1 h at 4° C., then the beads were washed four times with Nonidet P40 buffer. Immune complexes were eluted with 10 μl […] sodium dodecyl sulfate (SDS) sample buffer and analyzed by 10% or 15% SDS-PAGE and by autoradiography.
Similar results were obtained by two-hybrid analysis (see Table 5 of Example 12). To test whether the structural requirements for heterodimerization of the AtDPs were similar to those of their animal homologs, several deletion mutants of AtDPa and AtDPb were constructed (for a schematic illustration, see FIGS. 52 and 53), tagged with the c-myc epitope (FIGS. 54 and 55, panels A). The interactions between the mutant AtDPs and AtE2Fb were analyzed in immunoprecipitation experiments with the specific anti-HA or anti-c-myc antibodies ([…], panels B and C, respectively). […]

Experiment [2] has as its target B6. Put plainly: yeast two-hybrid, growth on His- minimal medium; legend: +, positive interaction. On the procedure: (§1) Different combinations between bait (pGBTE2Fa226-356, pGBTE2Fb-Rb, or pGBTE2Fb 1-127, SEQ ID NO:207) and prey constructs were transformed into yeast cells and assayed for their ability to grow on His⁻ minimal media after 3 days of incubation at 30° C. Bait plasmids co-transformed with empty pAD-GAL424 and prey plasmids co-transformed with empty pGBT9 were assessed along as controls for the specificity of the interaction.
(§2) Different combinations between AtE2Fs bait and AtDPs prey constructs were tested for growth on His minimal media. −, no interaction; +, positive interaction; NT, not tested.

For experiment [3], the target named is B5. The experiment is described as above. As for the experimental part:
as §1, §2

Experiment [4] has as its target T2, CCP16, two-hybrid prey clone E2F5BBC1 (Arabidopsis thaliana, UniProt Q9FNY3 1-292).
T2 construct: partial protein read from the clone; also called DPa; AtDPa
T2 sequence: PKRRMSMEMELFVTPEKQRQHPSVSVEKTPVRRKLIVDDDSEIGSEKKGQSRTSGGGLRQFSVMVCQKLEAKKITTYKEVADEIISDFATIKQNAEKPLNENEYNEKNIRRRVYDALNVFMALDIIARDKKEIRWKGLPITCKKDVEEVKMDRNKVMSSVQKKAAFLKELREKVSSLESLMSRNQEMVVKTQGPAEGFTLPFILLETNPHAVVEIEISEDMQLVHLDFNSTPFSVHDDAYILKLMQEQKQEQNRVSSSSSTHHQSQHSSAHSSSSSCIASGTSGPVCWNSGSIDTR
Put plainly: yeast two-hybrid library screen (GAL4, His prototrophy in HF7c); prey clone isolated with this bait. On the procedure:
For library screening, vectors and strains (HF7c) were provided with the Matchmaker two-hybrid system (Clontech). The dimerization and DNA-binding domains of the AtE2Fa (amino acids 226-356; SEQ ID NO:205) were amplified by polymerase chain reaction (PCR) and subcloned in-frame with the GAL4 DNA-binding domain of pGBT9 (Clontech) to create the bait plasmid pGBTE2Fa226-356. Screens were performed as described previously (De Veylder et al. 1999; Planta 208, 453-462). A second library screening was performed with the AtE2Fb construct (pGBTE2Fb-Rb) lacking the Rb-binding domain (amino acids 1-385; SEQ ID-NO:206). Plasmids from interacting clones were isolated and sequenced.

The target of experiment [5] is B7. The experiment can be described thus: yeast two-hybrid, growth on His- minimal medium; legend: -, no interaction.
The target of experiment [6] is T3, pGBTE2Fb-Rb: GAL4 DNA-binding domain fusion of AtE2Fb amino acids 1-385 (lacking the Rb-binding domain) (Arabidopsis).
T3 construct: also called E2F3 N-terminal; E2Fb (=E2F3) N-terminal domain
Described as above.

Experiment [7] addresses B2. Described as above.
Experiment [8] has as its target T4, empty pGBT9 (GAL4 DNA-binding domain alone) (UniProt P04386 1-147).
T4 construct: empty bait vector, control for specificity; also called pBGT9
Put plainly: yeast two-hybrid, growth on His- minimal medium; empty bait vector control; legend: -, no interaction. As for the experimental part:
as §1, §2

The target of experiment [9] is T3, pGBTE2Fb-Rb: GAL4 DNA-binding domain …. The experiment can be described thus: yeast two-hybrid, growth on His- minimal medium; legend: +, positive interaction. As for the experimental part: as §1, §2
Experiment [10] has as its target T5, pGBT DPa 1-292: GAL4 DNA-binding domain fusion of AtDPa 1-292 (Arabidopsis thaliana).
T5 construct: its construction is not described
The experiment can be described thus: yeast two-hybrid, growth on His- minimal medium; legend: -, no interaction.

For experiment [11], the target named is T6, pGBT DPb 1-385: GAL4 DNA-binding domain fusion of AtDPb 1-385 (Arabidopsis thaliana).
T6 construct: its construction is not described
The experiment is described as above.

The target in experiment [12] is B6. Described as above.
Experiment [13] has as its target B5. Described as above.

T1 sequence (Q9FV71 1-469, tags or fused parts left off): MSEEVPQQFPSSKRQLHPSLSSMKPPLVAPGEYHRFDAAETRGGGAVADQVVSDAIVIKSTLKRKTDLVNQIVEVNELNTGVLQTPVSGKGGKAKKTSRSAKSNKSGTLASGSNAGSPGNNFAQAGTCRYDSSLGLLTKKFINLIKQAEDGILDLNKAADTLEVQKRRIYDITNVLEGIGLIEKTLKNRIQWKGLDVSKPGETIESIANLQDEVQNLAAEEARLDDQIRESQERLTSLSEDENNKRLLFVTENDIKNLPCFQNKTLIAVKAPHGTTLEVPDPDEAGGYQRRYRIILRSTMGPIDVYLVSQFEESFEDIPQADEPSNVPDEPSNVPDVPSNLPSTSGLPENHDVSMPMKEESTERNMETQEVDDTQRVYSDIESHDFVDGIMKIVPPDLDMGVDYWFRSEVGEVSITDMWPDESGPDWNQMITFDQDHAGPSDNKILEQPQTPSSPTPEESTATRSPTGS

B1: c-myc-tagged AtDPa 1-142, in vitro translated (other)
chain: EQKLISEEDLEQKLISEEDLMSMEMELFVTPEKQRQHPSVSVEKTPVRRKLIVDDDSEIGSEKKGQSRTSGGGLRQFSVMVCQKLEAKKITTYKEVADEIISDFATIKQNAEKPLNENEYNEKNIRRRVYDALNVFMALDIIARDKKEIRWKGLPITCKKDV
notes: also called c-myc-AtDPa 1-142
In the case of B1, the binding result in experiment [1] is “no binding”.

Regarding B2, the binding result in experiment [2], in [3] and in [4] was “binds” each time.

B3: c-myc-tagged AtDPb 1-193, in vitro translated (other)
chain: EQKLISEEDLEQKLISEEDLMTTTGSNSNHNHHESNNNNNNPSTRSWGTAVSGQSVSTSGSMGSPSSRSEQTITVVTSTSDTTFQRLNNLDIQGDDAGSQGASGVKKKKRGQRAAGPDKTGRGLRQFSMKVCEKVESKGRTTYNEVADELVAEFALPNNDGTSPDQQQYDEKNIRRRVYDALNVLMAMDIISKDKKEIQWRGLPRTSLSDIEE
notes: also called c-myc-AtDPb 1-193
Consider B3, for which the binding result in experiment [1] is “no binding”.

B4: GAL4 transactivation domain fusion of AtE2Fa 226-356 (prey of Table V) (other, not shown: large carriers)
chain: NRILWKGVDACPGDEDADVSVLQLQAEIENLALEEQALDNQIRQTEERLRDLSENEKNQKWLFVTEEDIKSLPGFQNQTLIAVKAPHGTTLEVPDPDEAADHPQRRYRIILRSTMGPIDVYLVSEFEGKFE
notes: its construction is not described
Take B4: the binding result in experiment [5], in experiment [6], in [7] and in experiment [8] was “no binding” each time.

Take B5: the binding result in [9] was “binds”; in [10] it was “no binding”.

On to B6, for which the binding result in experiment [9] was “binds”; in [10], “no binding”; in experiment [11], “no binding”.

In the case of B7, the binding result in experiment [12] and in [13] was “no binding” throughout.
